Experimental data published in patent publication US20210355235A1, “Compositions and Methods For Treating Cancer with Anti-Renalase antibodies and Anti-PD1 antibodies” (YALE UNIVERSITY, priority 2017, published 2021).
Entries after “also recorded” stand apart in the source; their conditions may differ.

Key:
[1] = tested on: renalase-1 and renalase-2; test: renalase isoform specificity of the antibodies (ELISA / hybridoma screening); type: binding, human; settings: renalase-1 vs renalase-2
Procedure: Peptides were used as immunogens. The peptides generated ranged from 9 to 21 amino acids and corresponded to regions of the renalase-1 and renalase-2 proteins. […] Each peptide was conjugated to the adjuvant KLH via the cysteine and used to immunize 6 rabbits. Antiserum collected from each animal was screened for anti-renalase antibody titer by ELISA assay using both the relevant peptide (BSA-conjugate) or full length renalase-1 or 2. The antisera were also tested for their ability to detect endogenous renalase in tissue lysates by western blot. Using these screening criteria the animals producing antibodies with the preferred characteristics were selected. In some examples and for some peptides, several animals produced antibodies with the required specificity. […] Polyclonal antibodies raised against all of the peptides were generated by purification of total IgG from terminal bleeds by protein G chromatography followed by further purification on peptide affinity chromatography. Further and using standard procedures, lymphocytes from the spleens of selected animals were fused to myeloma cells for hybridoma generation. The hybridoma supernatants were screened for binding to both the peptides against which they were raised and secondarily screened against whole renalase protein. Selected hybridomas were sub-cloned and expanded for antibody purification. The monoclonal antibodies were purified from conditioned hybridoma culture supernatant by protein A affinity chromatography.

Panc1 cells [2] = test: western blot of p38 and STAT3 phosphorylation; type: cell-based, human
From the text: FIG. 27, comprising FIGS. 27A through 27E, is a series of images and charts showing the interaction between RNLS and STAT3, and the mechanistic model of inhibition by m28-RNLS. FIG. 27A is an image showing activation of STAT3 by RNLS in Panc1 cells; Panc1 cells in culture treated with either BSA or RNLS, and STAT3 phosphorylation assessed by western blot; p-Ser^727-STAT3: phosphorylation at serine 727, p-Y^705-STAT3: phosphorylation at tyrosine 705; representative study. FIG. 27B is a chart depicting the quantification of STAT3 phosphorylation with RNLS; signals normalized to total STAT3; n=3, *=P<0.05. […] FIG. 27D is a chart showing the quantification of STAT3 phosphorylation with m28-RNLS; signals normalized to GAPDH loading control; n=3, *=P<0.05. FIG. 27E depicts the proposed mechanistic model for antitumor activity of m28-RNLS.

Panc1 cells [3] = test: FACS analysis of apoptosis and cell cycle; type: cell-based, human; settings: 30 μg/ml
Procedure: For cell cycle analysis, cultured cells were dissociated using 10 mM EDTA, fixed with ice-cold 70% ethanol, digested with RNAse A, and stained with propidium iodide. Propidium staining was detected using a BD FACSCalibur flow cytometer (BD Biosciences, San Jose, Calif., USA), and analyzed using CellQuest software.
Apoptosis was detected and quantified as previously done (Guo et al., 2012 Cancer Science. 103(8):1474-80). In brief, cells were stained with FITC-labeled Annexin-V and propidium iodide according to the manufacturer's instructions (Bender MedSystems, Burlingame, Calif., USA). At least 20,000 events were collected on a BD FACSCalibur flow cytometer (BD Biosciences, San Jose, Calif., USA) and analyzed using CellQuest software.

A375.S2 xenograft tumors = type: in vivo
Procedure: Briefly, tumor tissues were formalin-fixed, paraffin-embedded and cut into 5-m sections on glass slides. The slides were de-paraffinized and hydrated, followed by antigen retrieval in a pressure cooker containing 10 mM sodium citrate, pH6 buffer. The sections were blocked in 3% hydrogen peroxide for 30 min and 2.5% normal horse serum in PBS/0.1% Tween20 for 1 h followed by incubation with primary antibody and isotype control IgG overnight at 4° C. The following antibodies were used in this study: m28-RNLS at 500 ng/ml; goat polyclonal anti-RNLS at 250 ng/ml (Abcam, ab31291); rabbit monoclonal anti-CD68 (BDBioscience, 1:100); rabbit monoclonal anti-CD163 (AbD Serotec, 1:100); rabbit monoclonal anti-CD86 (Abcam, 1:100); rabbit monoclonal anti-Ki67 (Vector Lab, VP-RM04, 1:100); rabbit monoclonal anti-p21, […], and total Stat3 (Cell Signaling Technologies, #2947, 1:100, #9145, 1:400, and #4904, 1:400, respectively). ImmPRESS peroxidase-anti-rabbit IgG (Vector Laboratories, Burlingame, Calif., USA) was used to detect primary antibodies. […] Slides were observed and photographed using an Olympus BX41 microscope and camera (Olympus America Inc, Center Valley, Pa., USA).
Female athymic, 18-20 g nude mice (nu/nu) were obtained from Charles River (Willimantic, Conn.) and housed in microisolator cages, with autoclaved bedding in a specific pathogen-free facility, with a 12-h light/dark cycle.
Xenograft tumors were established by subcutaneous injection of A375.S2 cells (2×10^6 in 100 μl of PBS, pH 7.6). When the tumors reached a volume of 50-100 mm^3, the mice were divided into a control group (n=14 treated with rabbit IgG, 40 μg by intraperitoneal injection (IP) once weekly, and 40 ug subcutaneously (SQ) around the tumor site every 3 days), and an experimental group (n=14) that received m28-RNLS (40 μg IP, once weekly, and 40 ug SQ, every 3 days). Tumor size was measured with digital calipers and volume was calculated according to the formula (length×width^2)×π/2.
At the end of the study, the mice were sacrificed, the tumors were excised and immediately snap-frozen in liquid nitrogen and stored at −80° C. Apoptosis was examined using the TUNEL assay (Roche in situ Apoptosis Detection System), according to the manufacturer's instructions. Sections were examined by light microscopy and the apoptosis index was determined by counting ≥1000 cells in 10 randomly selected high-power fields (×200 magnification).

[4] = immunofluorescence / western blot

B1: m28-RNLS: rabbit anti-renalase monoclonal raised against RNLS peptide RP-220; heavy chain SEQ ID NO:9, light chain SEQ ID NO:10 (antibody)
heavy: METGLRWLLLVAVLKGVQCQSVEESGGRLVTPGTPLTLTCTVSGFSLSSFAVGWVRQAPGKGLEYIGIISSVGITRYASWAAGRFTISKTSTTVDLKITSPTTEDTATYFCARYGYSGDVNRLDLWGQGTLVTVSSGQPKAPSVFPLAPCCGDTPSSTVTLGCLVKGYLPEPVTVTWNSGTLTNGVRTFPSVRQSSGLYSLSSVVSVTSSSQPVTCNVAHPATNTKVDKTVAPSTCSKPTCPPPELLGGPSVFIFPPKPKDTLMISRTPEVTCVVVDVSQDDPEVQFTWYINNEQVRTARPPLREQQFNSTIRVVSTLPIAHQDWLRGKEFKCKVHNKALPAPIEKTISKARGQPLEPKVYTMGPPREELSSRSVSLTCMINGFYPSDISVEWEKNGKAEDNYKTTPAVLDSDGSYFLYSKLSVPTSEWQRGDVFTCSVMHEALHNHYTQKSISRSPGK
light: MDTRAPTQLLGLLLLWLPGATFAQVLTQTASPVSAAVGGTVTINCQASQSVYDNNNLAWYQQKPGQPPKQLIYGASTLASGVSSRFKGSGSGTQFTLTISGVQCDDAATYYCLGEFSCSSADCFAFGGGTEVVVKGDPVAPTVLIFPPSADLVATGTVTIVCVANKYFPDVTVTWEVDGTTQTTGIENSKTPQNSADCTYNLSSTLTLTSTQYNSHKEYTCKVTQGTTSVVQSFNRGDC
modifications: 1D-28-4 full length heavy chain amino acid; 1D-28-4 full length light chain amino acid
[1]
  renalase-type specificity: recognize renalase-1 and renalase-2
Panc1 cells [2]; beginning at day 1 post treatment
  p38 MAPK phosphorylation: sustained phosphorylation
Panc1 cells [2]; up to 4 days
  STAT3 phosphorylation (p-Y705-STAT3) after antibody: long-lasting and sustained decrease; also recorded: inhibits STAT3 phosphorylation
Panc1 cells [3]
  cell cycle (FACS): pre-G2 cell cycle arrest
Panc1 cells [3]; 4 days
  apoptosis (FACS): caused apoptosis
A375.S2 xenograft tumors; immunofluorescence
  number of CD163+ TAMs: considerable decrease; also recorded: decreases
A375.S2 xenograft tumors; [4]
  RNLS protein expression in tumors: dramatic reduction; also recorded: decreases; also recorded: marked reduction
  total and phosphorylated STAT3 (p-Y705-STAT3) in tumors: significantly decreased; also recorded: marked reduction
A375.S2 xenograft tumors; mouse, in vivo
  ratio of CD86+ to CD163+ TAMs: increases
A375.S2 xenograft tumors; n=14, control 4.3±0.2
  TUNEL positive cells (apoptosis): 13.3±0.6 positive cells
A375.S2 xenograft tumors; n=14, control 12.2±1.0
  p21 positive cells (cell cycle regulator, IHC): 24.2±2.4 positive cells
A375.S2 xenograft tumors; n=14, control 35.1±2.3
  Ki67 positive cells (cellular proliferation marker, IHC): 13.4±3.0 positive cells/high power field
A375.S2 xenograft tumors; qPCR, human specific primers
  human (tumor) RNLS expression in tumor mass: without affecting
A375.S2 xenograft tumors; qPCR, mouse specific primers
  mouse (endogenous) RNLS expression in tumor mass: significant reduction
A375.S2 xenograft tumors; throughout the study
  toxicity (overall animal health and activity): did not appear to be toxic
A375.S2 xenograft tumors; vs control rabbit IgG, 40 μg IP weekly and 40 ug SQ every 3 days
  tumor volume: decreased tumor volume at all points tested
